Measurements published in article doi:10.1101/805184 (bioRxiv, 2019).

T1: Swi1 (S. cerevisiae, UniProt P09547 1-1314)
T1 sequence: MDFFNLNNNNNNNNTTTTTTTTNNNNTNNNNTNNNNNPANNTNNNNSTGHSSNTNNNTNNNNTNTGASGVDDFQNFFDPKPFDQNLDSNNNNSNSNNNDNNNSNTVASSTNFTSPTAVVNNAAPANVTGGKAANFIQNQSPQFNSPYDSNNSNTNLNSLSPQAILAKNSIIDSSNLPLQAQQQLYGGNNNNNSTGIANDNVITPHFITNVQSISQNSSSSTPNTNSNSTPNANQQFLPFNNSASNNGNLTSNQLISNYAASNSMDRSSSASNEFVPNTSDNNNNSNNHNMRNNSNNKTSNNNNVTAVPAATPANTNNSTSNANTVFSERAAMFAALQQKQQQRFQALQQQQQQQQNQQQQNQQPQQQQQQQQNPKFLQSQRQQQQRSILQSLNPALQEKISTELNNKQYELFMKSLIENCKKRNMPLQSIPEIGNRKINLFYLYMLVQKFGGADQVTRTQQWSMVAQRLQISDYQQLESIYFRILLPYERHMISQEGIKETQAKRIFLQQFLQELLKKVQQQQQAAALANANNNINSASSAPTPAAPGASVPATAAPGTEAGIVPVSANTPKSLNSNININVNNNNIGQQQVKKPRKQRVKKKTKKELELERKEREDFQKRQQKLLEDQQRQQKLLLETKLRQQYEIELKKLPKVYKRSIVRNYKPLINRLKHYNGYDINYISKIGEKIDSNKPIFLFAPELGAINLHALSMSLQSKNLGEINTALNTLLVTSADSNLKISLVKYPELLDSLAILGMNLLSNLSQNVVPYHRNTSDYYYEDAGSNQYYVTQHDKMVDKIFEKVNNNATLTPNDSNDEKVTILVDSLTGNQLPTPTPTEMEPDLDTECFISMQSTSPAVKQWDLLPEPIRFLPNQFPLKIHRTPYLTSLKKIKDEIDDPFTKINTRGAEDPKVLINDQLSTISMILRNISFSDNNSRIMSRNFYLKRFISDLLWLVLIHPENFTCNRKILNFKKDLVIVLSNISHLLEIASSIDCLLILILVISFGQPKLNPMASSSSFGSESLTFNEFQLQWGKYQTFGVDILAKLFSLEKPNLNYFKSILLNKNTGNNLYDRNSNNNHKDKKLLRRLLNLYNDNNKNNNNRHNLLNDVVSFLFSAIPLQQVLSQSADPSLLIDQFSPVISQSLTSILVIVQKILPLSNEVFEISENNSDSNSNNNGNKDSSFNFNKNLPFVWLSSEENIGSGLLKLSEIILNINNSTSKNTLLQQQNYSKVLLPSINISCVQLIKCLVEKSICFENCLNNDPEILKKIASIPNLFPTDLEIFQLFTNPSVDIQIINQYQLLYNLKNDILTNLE

T2: Snf12 (S. cerevisiae, UniProt P53628 1-566)
T2 sequence: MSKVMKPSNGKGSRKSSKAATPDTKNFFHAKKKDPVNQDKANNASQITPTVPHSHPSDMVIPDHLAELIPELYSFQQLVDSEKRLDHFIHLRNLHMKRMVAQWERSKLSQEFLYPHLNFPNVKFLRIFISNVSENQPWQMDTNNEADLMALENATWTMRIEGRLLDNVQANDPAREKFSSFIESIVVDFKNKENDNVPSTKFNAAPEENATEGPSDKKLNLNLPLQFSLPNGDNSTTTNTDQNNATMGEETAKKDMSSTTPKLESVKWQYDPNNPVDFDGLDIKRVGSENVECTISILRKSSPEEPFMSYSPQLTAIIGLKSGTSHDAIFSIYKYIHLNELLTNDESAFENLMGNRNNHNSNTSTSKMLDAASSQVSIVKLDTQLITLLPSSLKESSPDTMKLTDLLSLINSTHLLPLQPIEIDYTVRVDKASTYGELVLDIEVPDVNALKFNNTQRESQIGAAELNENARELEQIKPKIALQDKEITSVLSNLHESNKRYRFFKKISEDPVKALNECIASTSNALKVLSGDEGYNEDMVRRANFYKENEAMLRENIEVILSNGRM

B1: Swi3 (natural protein)
chain: MENTLGEGSTVNASVDVDQHGNDNNSDSNANAAVAGVANTDTAGEESQQQDESLKDEATVPNTRDAESEAITVTAKQQPTMQANKLDSQETPSTEESRAQNVFGQDNEDSDNLFGETESSVSNNEANTPSIPTNPVDNENNKPAIKEDSTIQDSNGDVKNMEDVKIQKEEEPENNTVIEGVKEESQPDENTKEMDEVEEDDEDDDQPMISPDNSIFGDTKSESKQLGNTSSVANTPSEIPDAHKAEQEDIIEKTESVDKKVDSGEERNEQEREIMNDHSKSANPKKTTITRVEPETFEIPQAHEIVIPSYSKWFNLEKIHSIEVQSLPEFFTNRIPSKTPEVYMRYRNFMVNSYRLNPNEYFSVTTARRNVSGDAAALFRLHKFLTKWGLINYQVDSKLLPKNIEPPLTSQYSTRHDAPRGLFPFESYKPSVQLPDMAKLKKMMNTSDSESTLYKYLKESKRKYDEITHPPSTTDDENGDKNDNGGKMNNEVSTSTSMTGDANLLEEGETSRPLKKVKILEQIDENWSKEDLQKLLKGIQEFGADWYKVAKNVGNKSPEQCILRFLQLPIEDKFLYGDGNGKGDNDNGLGPLKYAPHLPFSKSENPVLSTIAFLVGLVNPKTVQSMTQRAIQSAESIKSQKEEISDQKPIEHIKEGSEIAISSLGYRSHIFATNEERQMNFLTNELIRLQMEKLDAKLNHLKKLEKFMELERKTLERQQENLLIQRLNFNQNSSKIVNVLSKCLNLISDSNINNSSVAEKEEIRSQIDHFKSMLSKPETLSIGKNPFNKPNIETGENHNGQSISNENDVKPISIEAPQFYRYWSA
B2: Swp82 (natural protein)
chain: MLGEDEGNTVLEKGNNPSVKQGEVGAVFIVPKILIREHERVILKQILQILDQDELVQPPLDKFPYKKLELPKYIDELKTRDATNTSYKMIQLDAYGEKKVGSNGELFGGRHYLFNTFTFTAHMGVLLVLLQDVIKVLYQSNATHDEDEFIVQHDQILVMETSEEQTKFLAKNGVIPEESKGSFKYITARSAFVEFGASVIAGGQRIVDDYWESLAKKQNLSSHQRVFKLSTNLISKISLLRPSFQNNRISNANEISANTNNTCTISTSKFESQYPIVTEQPSAEIREAYIENFAKGEHISAIVPGQSISGTLELSAQFRVPRYHSKNSFQQALQMKAMDIPIGRHEELLAQYESQAPDGSASISLPNHIPSVNPSNKPIKRMLSSILDINVSSSKNKKSEENEMIKPMNKGQHKNNTSLNINGWKFESLPLKSAENSGKQQYYRGLPLYEKNTLLERLKQLTPNEIKELEHLHDAVFVNTGLQNVRKVRTKKWKKYWQYKAGIPIGLKRSQLDEFKNKYLKDVLAQTSVTTNFNEITNTDETITTKRVPNPNFLGNCNIKDFKPPYIYSHVNKVPQNVAGDKTAVKLDTEVKNTNANPVVATDPVAAKPDNLANFSNEVAMNN
B3: Snf6 (natural protein)
chain: MGVIKKKRSHHGKASRQQYYSGVQVGGVGSMGAINNNIPSLTSFAEENNYQYGYSGSSAGMNGRSLTYAQQQLNKQRQDFERVRLRPEQLSNIIHDESDTISFRSNLLKNFISSNDAFNMLSLTTVPCDRIEKSRLFSEKTIRYLMQKQHEMKTQAAELQEKPLTPLKYTKLIAAAEDGSRSTKDMIDAVFEQDSHLRYQPDGVVVHRDDPALVGKLRGDLREAPADYWTHAYRDVLAQYHEAKERIRQKEVTAGEAQDEASLQQQQQQDLQQQQQVVTTVASQSPHATATEKEPVPAVVDDPLENMFGDYSNEPFNTNFDDEFGDLDAVFF

Legend:
Experiment in all cases: cryo-EM structure
Snf2 = Snf2 (S. cerevisiae, UniProt P22082 1-1703)
Sequence of Snf2 (P22082 whole entry): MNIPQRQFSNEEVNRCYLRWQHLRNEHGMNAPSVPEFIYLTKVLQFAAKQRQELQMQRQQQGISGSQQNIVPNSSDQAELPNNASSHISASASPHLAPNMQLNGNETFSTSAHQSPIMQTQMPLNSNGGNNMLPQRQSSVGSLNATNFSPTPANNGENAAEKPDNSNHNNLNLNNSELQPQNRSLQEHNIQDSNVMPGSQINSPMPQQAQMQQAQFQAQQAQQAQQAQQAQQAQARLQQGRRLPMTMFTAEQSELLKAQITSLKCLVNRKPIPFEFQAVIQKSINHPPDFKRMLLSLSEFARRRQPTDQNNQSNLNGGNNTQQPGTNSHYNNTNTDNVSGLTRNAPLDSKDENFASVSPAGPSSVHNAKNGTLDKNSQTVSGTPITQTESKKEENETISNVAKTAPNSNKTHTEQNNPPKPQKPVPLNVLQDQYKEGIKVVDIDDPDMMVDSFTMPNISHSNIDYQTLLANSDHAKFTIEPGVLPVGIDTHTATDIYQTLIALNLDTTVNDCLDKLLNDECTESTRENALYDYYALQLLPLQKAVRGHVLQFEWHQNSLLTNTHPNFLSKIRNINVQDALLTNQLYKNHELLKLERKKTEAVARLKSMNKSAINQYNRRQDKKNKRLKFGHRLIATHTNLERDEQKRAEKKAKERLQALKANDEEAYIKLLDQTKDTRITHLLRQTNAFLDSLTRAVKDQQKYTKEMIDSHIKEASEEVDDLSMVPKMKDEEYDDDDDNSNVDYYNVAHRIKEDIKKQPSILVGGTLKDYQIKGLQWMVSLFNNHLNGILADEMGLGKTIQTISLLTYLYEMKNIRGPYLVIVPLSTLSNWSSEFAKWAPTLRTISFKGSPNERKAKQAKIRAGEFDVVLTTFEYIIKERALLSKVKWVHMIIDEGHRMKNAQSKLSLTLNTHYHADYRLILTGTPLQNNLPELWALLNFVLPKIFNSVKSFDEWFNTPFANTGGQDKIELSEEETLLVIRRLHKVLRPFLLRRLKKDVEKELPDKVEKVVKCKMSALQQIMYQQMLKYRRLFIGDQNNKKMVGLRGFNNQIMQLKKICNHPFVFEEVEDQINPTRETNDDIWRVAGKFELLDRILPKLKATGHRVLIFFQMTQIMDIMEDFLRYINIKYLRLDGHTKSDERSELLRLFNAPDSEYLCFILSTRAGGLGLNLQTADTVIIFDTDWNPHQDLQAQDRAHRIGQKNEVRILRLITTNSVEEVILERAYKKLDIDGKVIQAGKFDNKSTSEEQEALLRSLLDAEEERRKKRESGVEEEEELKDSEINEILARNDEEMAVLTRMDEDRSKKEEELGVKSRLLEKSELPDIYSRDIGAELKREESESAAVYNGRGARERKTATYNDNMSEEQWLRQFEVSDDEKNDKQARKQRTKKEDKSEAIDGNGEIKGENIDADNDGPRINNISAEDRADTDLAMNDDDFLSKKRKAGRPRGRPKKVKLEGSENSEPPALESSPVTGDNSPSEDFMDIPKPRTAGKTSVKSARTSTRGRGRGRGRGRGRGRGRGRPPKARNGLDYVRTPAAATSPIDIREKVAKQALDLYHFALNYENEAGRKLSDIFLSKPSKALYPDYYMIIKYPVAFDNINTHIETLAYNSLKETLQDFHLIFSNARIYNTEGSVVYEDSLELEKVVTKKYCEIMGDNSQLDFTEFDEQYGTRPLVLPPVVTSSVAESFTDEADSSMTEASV

Swi1 = biological target: T1, Swi1
Snf5 = Snf5 (S. cerevisiae, UniProt P18480 1-905)
cryo-EM structure = biological target: the molecule itself
Swi3 = biological target: B1
Snf12 = biological target: T2, Snf12

binding result (Snf2)	binding result (Swi1)	binding result (Snf5)	binding result (Swi3)	binding result (Snf12)	Binder	stoichiometry N (cryo-EM structure)
binds	binds	binds	–	–	B1	2
–	–	binds	binds	–	B2	–
–	binds	–	binds	binds	B3	–
